The values that follow come from PMC5014688 (Structure (London, England : 1993), 2016).

Ends that are not written are not given here. * marks the point of attachment. Crotonyl(E) = C/C=C/C(=O)*

For test [1], the target named is Histone H3K4cr peptide (Homo sapiens) (UniProt P68431). The test can be described thus: ITC. Conditions: cited from earlier work.
Another test has as its target T1, AF9 YEATS domain (Homo sapiens, UniProt P42568).
T1 sequence (P42568 1-138): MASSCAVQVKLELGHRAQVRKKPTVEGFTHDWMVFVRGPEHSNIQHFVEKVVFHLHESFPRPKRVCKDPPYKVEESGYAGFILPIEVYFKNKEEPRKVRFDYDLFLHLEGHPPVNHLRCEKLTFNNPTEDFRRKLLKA
Put plainly: 2D 1H-15N HSQC NMR binding to AF9 YEATS domain. Conditions: 30°C, H3 peptide added to AF9 YEATS domain.

Test [2] addresses Histone H4K5ac/K8ac peptide (Homo sapiens) (UniProt P62805). The conditions noted are these: cited from earlier work.
Test [3] addresses Histone H4K5cr/K8cr peptide (Homo sapiens) (UniProt P62805). Conditions: cited from earlier work.
Test [4] addresses T2, AF9 YEATS domain (residues 1–138) (human, UniProt P42568 1-138).
T2 sequence (looked up): T1 sequence (P42568 1-138)
Put plainly: ITC.

Regarding Sirt3 (from UniProt Q9NTG7), the Kd in test [1] is 25 µM. With TKQTAR-K-SSGGKA [unmodified H3 peptide], on AF9 YEATS domain, the “changes of protein backbone amide resonances / binding” value was “did not cause any protein resonance changes”. On to TAF1 BD2 (from UniProt P21675), for which the Kd in test [2] is 50 µM; in test [3], 100 µM.

B1: histone H3K27cr peptide (residues 21–33) (peptide)
peptide: ATKAARK(Crotonyl(E))SAPATG
For the molecule B1, the binding result in test [4] is recorded as “binds”.

B2: histone H3K27ac peptide (residues 21–33) (peptide)
peptide: ATKAARK(Ac)SAPATG
Turning to B2, the binding result in test [4] is recorded as “binds”.
